These results are taken from paper PMC8927147 (2022).

The term Kd denotes a measure of binding affinity in units of concentration. A low value points to higher affinity.

Holding throughout (assay): ITC
A general note: ITC needs no label: the signal is the heat of the interaction.

One assay concerns the target T1, Taf14_(YEATS) (S. cerevisiae, UniProt P35189 2-137).
T1 chain: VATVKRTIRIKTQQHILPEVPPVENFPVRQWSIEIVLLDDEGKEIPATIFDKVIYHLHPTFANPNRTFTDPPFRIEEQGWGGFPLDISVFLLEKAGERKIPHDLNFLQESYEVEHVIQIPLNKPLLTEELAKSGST

The next assay has as its target T2, Sas5_(YEATS) (S. cerevisiae, UniProt Q99314 2-139).
T2 chain: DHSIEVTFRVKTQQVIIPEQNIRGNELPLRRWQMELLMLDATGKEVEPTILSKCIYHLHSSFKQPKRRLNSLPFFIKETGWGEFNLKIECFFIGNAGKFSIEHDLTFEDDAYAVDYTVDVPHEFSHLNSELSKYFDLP

A further assay deals with Hst2 (S. cerevisiae, UniProt P53686 1-357).
Hst2, sequence (P53686 whole entry): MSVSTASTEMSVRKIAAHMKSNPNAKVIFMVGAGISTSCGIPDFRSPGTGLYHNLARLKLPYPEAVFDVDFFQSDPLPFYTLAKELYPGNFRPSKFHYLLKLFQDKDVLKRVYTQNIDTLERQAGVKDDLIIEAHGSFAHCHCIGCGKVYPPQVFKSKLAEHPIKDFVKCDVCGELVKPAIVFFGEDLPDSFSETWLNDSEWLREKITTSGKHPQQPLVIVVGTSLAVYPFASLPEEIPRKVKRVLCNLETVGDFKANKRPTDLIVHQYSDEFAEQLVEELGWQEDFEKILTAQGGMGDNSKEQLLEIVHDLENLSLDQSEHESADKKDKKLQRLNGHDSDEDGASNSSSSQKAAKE

Ends that are not written are not given here. * marks the point of attachment. Bz = O=C(c1ccccc1)*

B1: H3K27bz peptide (peptide)
chain: KQLASKAARK(Bz)SAPSTGGVKY
With B1, the Kd with Taf14_(YEATS) came out at 136 µM; with Sas5_(YEATS), 92.6 µM; with Hst2, 6.13 µM.

B2: H3K9bz peptide (peptide)
peptide: ARTKQTARKSTGGKAPRKQY
modifications: benzoyl-lysine (Kbz) at K9
In the assay with Sas5_(YEATS), B2 yielded a Kd of 178 µM.

B3: H3K18bz peptide (peptide)
chain: STGGKAPRKQLASKAARY
modifications: benzoyl-lysine (Kbz) at K18
As for B3, the Kd was 85.5 µM in the assay with Taf14_(YEATS), 245 µM in the assay with Sas5_(YEATS) and 1.74 µM in the assay with Hst2.

B4: H3K14bz peptide (peptide)
chain: TARKSTGGK(Bz)APRKQLASY
Consider B4, for which the Kd with Taf14_(YEATS) was determined as 385 µM; with Sas5_(YEATS) it was 100 µM; with Hst2, 13.2 µM.

B5: H3K23bz peptide (peptide)
chain: APRKQLASK(Bz)AARKSAPSTY
With B5, the results for the Kd in the assay with Taf14_(YEATS), with Sas5_(YEATS) and with Hst2 were 467 µM, 279 µM and 14.8 µM, respectively.
